Substitutions are numbered along the chain they refer to. Square brackets hold non-standard residues; d marks the D form. Ends that are not written are not given here. Hyp = O=C(O)[C@@H]1C[C@@H](O)CN1
Tests used:
Experiment in all cases: ITC; 0.5–1 mM peptide titrated into 10–40 μM ecdTDR; 25°C; 10 mM sodium citrate, 100 mM NaCl, pH 5.5; fitted to one set of binding sites; MicroCal Auto-iTC200
Conditions in all cases: both partners purified
[1] = biological target: T1, TDR-R421A/R423A double mutant (ecdTDR) (Arabidopsis thaliana, UniProt Q9FII5 30-642, R421A | R423A)
T1 construct: TDR/PXY of A. thaliana, extracellular domain, residues 30-642; source: High Five insect cells (baculovirus), secreted, purified as the wild type (Ni-NTA, size-exclusion chromatography)
T1 sequence (looked up): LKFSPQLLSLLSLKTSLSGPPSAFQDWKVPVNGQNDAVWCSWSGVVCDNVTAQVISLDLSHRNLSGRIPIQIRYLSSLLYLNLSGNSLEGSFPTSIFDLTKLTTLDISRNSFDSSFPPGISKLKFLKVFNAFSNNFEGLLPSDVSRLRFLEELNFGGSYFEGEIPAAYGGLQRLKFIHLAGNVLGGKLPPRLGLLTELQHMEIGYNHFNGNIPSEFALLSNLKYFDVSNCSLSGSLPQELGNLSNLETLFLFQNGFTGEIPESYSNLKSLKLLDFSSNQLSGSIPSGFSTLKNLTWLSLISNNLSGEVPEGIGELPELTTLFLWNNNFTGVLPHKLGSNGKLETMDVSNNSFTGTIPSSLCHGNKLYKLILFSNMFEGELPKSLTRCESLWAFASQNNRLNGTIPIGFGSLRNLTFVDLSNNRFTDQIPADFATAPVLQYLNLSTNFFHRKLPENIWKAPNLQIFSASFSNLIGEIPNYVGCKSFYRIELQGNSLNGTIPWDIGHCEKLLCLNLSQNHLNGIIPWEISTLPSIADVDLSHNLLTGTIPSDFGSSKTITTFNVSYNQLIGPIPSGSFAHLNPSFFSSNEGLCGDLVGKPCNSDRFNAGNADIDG

ecdTDR R421A mutant = biological target: T2, ecdTDR R421A mutant (Arabidopsis thaliana, UniProt Q9FII5 30-642, single alanine substitution of R421)
T2 construct: TDR/PXY of A. thaliana, extracellular domain, residues 30-642; also called single alanine substitution of R421; source: High Five insect cells (baculovirus), secreted, purified as the wild type (Ni-NTA, size-exclusion chromatography)
T2 sequence (looked up): T1 sequence (looked up) with A394R

ecdTDR S187A mutant = biological target: T3, ecdTDR S187A mutant (Arabidopsis thaliana, UniProt Q9FII5 30-642, S187A)
T3 construct: TDR/PXY of A. thaliana, extracellular domain, residues 30-642; source: High Five insect cells (baculovirus), secreted, purified as the wild type (Ni-NTA, size-exclusion chromatography)
T3 sequence (looked up): T1 sequence (looked up) with S158A, A392R, A394R

B1: Tracheary Element Differentiation Inhibitory Factor (TDIF) peptide (peptide)
peptide: HEV[Hyp]SG[Hyp]NPISN
notes: TDIF, the 12-residue CLE peptide processed from CLE41 and CLE44 of A. thaliana; printed as HEV(Hyp)SG(Hyp)NPISN; numbers count on: the 12-residue peptide; CLE44 encodes the same peptide; also called wild type TDIF; wtTDIF; source: synthetic peptide (peptide 2.0)
Question: How did the “fold lower affinity than wild-type ecdTDR” value [1] turn out when B1 was run?
Answer: 3 fold

Question: Does B1 bind (ecdTDR R421A mutant)?
Answer: binds

Question: Does B1 bind (ecdTDR S187A mutant)?
Answer: binds

— paper PMC5383425, “Differential CLE peptide perception by plant receptors implicated from structural and functional analyses of TDIF-TDR interactions” (PLoS ONE, 2017)
